Data published in US20220144966A1 (SORRENTO THERAPEUTICS, published 2022).
Residue numbers refer to the chain shown, from its start. Each block holds one binder with its values, some of them ahead of it.

Key:
[1] = target: T1, recombinant cynomolgus CD38/His-tag (Sino Biological, catalog #90050-C08H) (cynomolgus monkey, UniProt Q5VAN0 44-300); assay: ELISA, His-tagged CD38 captured on Ni-NTA plate, antibody about 1 µg/mL
T1 construct: Bought protein; also called cynomolgus CD38 protein; not shown: His-tag

[2] = target: T2, recombinant mouse CD38/His-tag (Sino Biological, catalog #50191-M08H) (mouse, UniProt P56528 45-304); assay: ELISA, His-tagged CD38 captured on Ni-NTA plate, HRP anti-human Fc, OD 450 nm
T2 construct: Bought protein; also called murine CD38 protein; not shown: His-tag
T2 sequence: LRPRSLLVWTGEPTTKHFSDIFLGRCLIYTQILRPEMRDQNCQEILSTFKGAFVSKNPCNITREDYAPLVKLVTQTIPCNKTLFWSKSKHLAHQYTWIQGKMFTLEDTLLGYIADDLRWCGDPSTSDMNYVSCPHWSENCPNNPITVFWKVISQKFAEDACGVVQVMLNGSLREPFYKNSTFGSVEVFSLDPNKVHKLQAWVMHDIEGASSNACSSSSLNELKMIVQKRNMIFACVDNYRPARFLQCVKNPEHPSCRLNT

[3] = target: T3, cynomolgus CD38 on cynomolgus monkey T cells (cynomolgus monkey, UniProt Q5VAN0 1-300); assay: flow cytometry on cynomolgus peripheral blood lymphocytes co-stained with anti-CD3 FITC
T3 construct: Native CD38 on peripheral blood lymphocytes from cynomolgus monkey blood, co-stained with anti-CD3 FITC; also called cynomolgus T cells

[4] = target: human CD38 on cells (Raji, Ramos, RPMI 8226, human T cells) (human, UniProt P28907 1-300); assay: flow cytometry on non-activated or activated human T cells, 10, 1 or 0.1 µg/mL

binding result [1]: binds
binding result [2]: no binding (tested: about 1 µg/mL)
binding result [3]: binds
B1: parent antibody A2 (antibody, V domains shown)
VH: QVQLVESGGGLVKPGGSLRLSCAASGFTFSDDYMSWIRQAPGKGLEWVASVSNGRPTTYYADSVRGRFTISRDNAKNSLYLQMNSLRAEDTAVYYCAREDWGGEFTDWGRGTLVTVSS
VL: QAGLTQPPSASGTSGQRVTISCSGSSSNIGINFVYWYQHLPGTAPKLLIYKNNQRPSGVPDRFSGSKSGNSASLAISGLRSEDEADYYCAAWDDSLSGYVFGSGTKVTVL
notes: Only variable domains are tied to A2; also called A2-IgG1; anti-CD38-A2 parent antibody

binding result [4]: binds
B2: variant antibody 3E10 (antibody, V domains shown)
VH: B1 VH
VL: B1 VL with I31F, N32H
notes: it was captured by anti-human Fc in SPR

binding result [3]: binds
B3: variant antibody 3G3 (antibody, V domains shown)
VH: B1 VH with D100A, G102S, R110Q
VL: B1 VL

binding result [3]: binds
B4: variant antibody 3H10m1 (antibody, V domains shown)
VH: B1 VH with D100G, G102S, R110Q
VL: B1 VL with I31F, N32H
